From PMC10397247

Key:
[1] = molecular target: T1, 4H619-bN; assay: two-hybrid library CCNG1;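 also: natural log of median RNA to DNA barcode read ratio; higher means stronger binding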
T1 chain: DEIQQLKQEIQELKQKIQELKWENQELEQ

[2] = molecular target: T2, 4H1804-bN; assay: two-hybrid library CCNG1;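 also: natural log of median RNA to DNA barcode read ratio; higher means stronger binding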
T2 chain: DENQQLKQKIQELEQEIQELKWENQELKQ

[3] = molecular target: T3, 4H3817-bN; assay: two-hybrid library CCNG1;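 also: natural log of median RNA to DNA barcode read ratio; higher means stronger binding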
T3 chain: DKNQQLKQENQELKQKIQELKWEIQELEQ

[4] = molecular target: T4, 4H3974-bN; assay: two-hybrid library CCNG1;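 also: natural log of median RNA to DNA barcode read ratio; higher means stronger binding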
T4 chain: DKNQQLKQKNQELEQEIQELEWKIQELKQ

[5] = molecular target: T5, 4H906-bN; assay: two-hybrid library CCNG1;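 also: natural log of median RNA to DNA barcode read ratio; higher means stronger binding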
T5 chain: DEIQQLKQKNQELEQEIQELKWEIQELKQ

[6] = molecular target: T6, 4H3638-bN; assay: two-hybrid library CCNG1;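 also: natural log of median RNA to DNA barcode read ratio; higher means stronger binding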
T6 chain: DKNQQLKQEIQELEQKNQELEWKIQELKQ

[7] = molecular target: T7, 4H1985-bN; assay: two-hybrid library CCNG1
T7 chain: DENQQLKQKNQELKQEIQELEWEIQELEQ

[8] = molecular target: T8, 4H3172-bN; assay: two-hybrid library CCNG1
T8 chain: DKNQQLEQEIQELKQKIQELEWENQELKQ

[9] = molecular target: T9, 4H3631-bN; assay: two-hybrid library CCNG1
T9 chain: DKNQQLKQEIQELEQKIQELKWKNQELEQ

[10] = molecular target: T10, 4H584-bN; assay: two-hybrid library CCNG1
T10 chain: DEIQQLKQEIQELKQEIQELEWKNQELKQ

[11] = molecular target: T11, 4H570-bN; assay: two-hybrid library CCNG1
T11 chain: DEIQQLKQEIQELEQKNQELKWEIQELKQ

[12] = molecular target: T12, 4H850-bN; assay: two-hybrid library CCNG1
T12 chain: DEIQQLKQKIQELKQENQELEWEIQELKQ

[13] = molecular target: T13, 4H3129-bN; assay: two-hybrid library CCNG1
T13 chain: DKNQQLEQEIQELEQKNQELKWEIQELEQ

[14] = molecular target: T14, 4H3414-bN; assay: two-hybrid library CCNG1
T14 chain: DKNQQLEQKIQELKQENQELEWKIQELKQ

[15] = molecular target: T15, APC9806-AA; assay: two-hybrid library CCmax; details: mean of both orientations
T15 chain: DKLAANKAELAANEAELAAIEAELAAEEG

[16] = molecular target: T16, APC542-AA; assay: two-hybrid library CCmax; details: mean of both orientations
T16 chain: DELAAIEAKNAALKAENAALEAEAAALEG

[17] = molecular target: T17, APC2811-AA; assay: two-hybrid library CCmax; details: mean of both orientations
T17 chain: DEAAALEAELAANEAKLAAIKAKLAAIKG

[18] = molecular target: T18, APC5009-AA; assay: two-hybrid library CCmax; details: mean of both orientations
T18 chain: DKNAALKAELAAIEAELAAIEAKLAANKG

[19] = molecular target: T19, APC3881-AA; assay: two-hybrid library CCmax; details: mean of both orientations
T19 chain: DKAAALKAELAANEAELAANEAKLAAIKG

[20] = molecular target: T20, APC3265-AA; assay: two-hybrid library CCmax; details: mean of both orientations
T20 chain: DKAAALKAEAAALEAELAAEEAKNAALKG

[21] = molecular target: T21, APC4336-AA; assay: two-hybrid library CCmax; details: mean of both orientations
T21 chain: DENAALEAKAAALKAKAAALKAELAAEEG

[22] = molecular target: T22, APC5531-AA; assay: two-hybrid library CCmax; details: mean of both orientations
T22 chain: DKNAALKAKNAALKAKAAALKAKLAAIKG

[23] = molecular target: T23, APC2474-AA; assay: two-hybrid library CCmax; details: mean of both orientations
T23 chain: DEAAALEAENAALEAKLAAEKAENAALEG

[24] = molecular target: T24, APC4100-AA; assay: two-hybrid library CCmax; details: mean of both orientations
T24 chain: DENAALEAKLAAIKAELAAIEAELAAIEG

[25] = molecular target: T25, APC2543-AA; assay: two-hybrid library CCmax; details: mean of both orientations
T25 chain: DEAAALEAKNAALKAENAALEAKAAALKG

[26] = molecular target: T26, APC7524-AA; assay: two-hybrid library CCmax; details: mean of both orientations
T26 chain: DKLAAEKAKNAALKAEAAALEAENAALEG

[27] = molecular target: T27, APC9182-AA; assay: two-hybrid library CCmax; details: mean of both orientations
T27 chain: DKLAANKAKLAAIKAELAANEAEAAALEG

[28] = molecular target: T28, APC8401-AA; assay: two-hybrid library CCmax; details: mean of both orientations
T28 chain: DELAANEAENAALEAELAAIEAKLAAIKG

[29] = molecular target: T29, APC9141-AA; assay: two-hybrid library CCmax; details: mean of both orientations
T29 chain: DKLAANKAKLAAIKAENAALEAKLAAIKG

[30] = molecular target: T30, APC2375-AA; assay: two-hybrid library CCmax
T30 chain: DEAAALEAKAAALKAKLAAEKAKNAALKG

[31] = molecular target: T31, APC8516-AA; assay: two-hybrid library CCmax; details: mean of both orientations
T31 chain: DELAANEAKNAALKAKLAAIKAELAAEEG

[32] = molecular target: T32, APC3354-AA; assay: two-hybrid library CCmax; details: mean of both orientations
T32 chain: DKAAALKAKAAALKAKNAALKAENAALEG

[33] = molecular target: T33, APC3323-AA; assay: two-hybrid library CCmax; details: mean of both orientations
T33 chain: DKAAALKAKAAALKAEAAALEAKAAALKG

[34] = molecular target: T34, APC2556-AA; assay: two-hybrid library CCmax; details: mean of both orientations
T34 chain: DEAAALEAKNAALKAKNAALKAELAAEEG

[35] = molecular target: T35, APC2981-AA; assay: two-hybrid library CCmax; details: mean of both orientations
T35 chain: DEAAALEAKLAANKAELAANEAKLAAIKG

[36] = molecular target: T36, APC6088-AA; assay: two-hybrid library CCmax; details: mean of both orientations
T36 chain: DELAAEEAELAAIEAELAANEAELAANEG

[37] = molecular target: T37, APC9291-AA; assay: two-hybrid library CCmax; details: mean of both orientations
T37 chain: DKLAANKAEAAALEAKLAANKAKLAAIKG

[38] = molecular target: T38, APC2724-AA; assay: two-hybrid library CCmax; details: mean of both orientations
T38 chain: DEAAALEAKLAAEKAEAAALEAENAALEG

[39] = molecular target: T39, O8-bS; assay: two-hybrid library CCNG1
T39 chain: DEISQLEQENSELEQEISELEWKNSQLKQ

[40] = molecular target: T40, O9-bS; assay: two-hybrid library CCNG1
T40 chain: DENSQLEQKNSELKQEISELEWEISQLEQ

[41] = molecular target: T41, O6-bS; assay: two-hybrid library CCNG1
T41 chain: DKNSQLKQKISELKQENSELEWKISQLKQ

[42] = molecular target: T42, O15-bS; assay: two-hybrid library CCNG1
T42 chain: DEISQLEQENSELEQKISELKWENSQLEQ

[43] = molecular target: T43, O5-bS; assay: two-hybrid library CCNG1
T43 chain: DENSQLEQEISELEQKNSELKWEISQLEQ

[44] = molecular target: T44, O4-bS; assay: two-hybrid library CCNG1
T44 chain: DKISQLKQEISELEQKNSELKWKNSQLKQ

[45] = molecular target: T45, O16-bS; assay: two-hybrid library CCNG1
T45 chain: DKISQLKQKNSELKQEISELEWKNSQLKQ

[46] = molecular target: T46, O2-bS; assay: two-hybrid library CCNG1
T46 chain: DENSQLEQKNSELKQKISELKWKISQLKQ

[47] = molecular target: T47, O3-bS; assay: two-hybrid library CCNG1
T47 chain: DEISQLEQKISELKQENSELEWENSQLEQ

[48] = molecular target: T48, O7-bS; assay: two-hybrid library CCNG1
T48 chain: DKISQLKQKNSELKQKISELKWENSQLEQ

B1: 4H1804-bN (peptide)
chain: DENQQLKQKIQELEQEIQELKWENQELKQ
interaction score [1]: -1.34 | interaction score [2]: 1.58 | interaction score [3]: -0.425 | interaction score [4]: -1.87 | interaction score [5]: -0.241 | interaction score [6]: -0.805 | interaction score [7]: 0.201 | interaction score [8]: -0.368 | interaction score [9]: 0.112 | interaction score [10]: 0.249 | interaction score [11]: -0.363 | interaction score [12]: 0.194 | interaction score [13]: 0.0855 | interaction score [14]: -0.563

B2: APC2375-AA (peptide)
chain: DEAAALEAKAAALKAKLAAEKAKNAALKG
interaction score [15]: -1.72 | interaction score [16]: -1.83 | interaction score [17]: -1.74 | interaction score [18]: -0.913 | interaction score [19]: -1.74 | interaction score [20]: -1.44 | interaction score [21]: -1.65 | interaction score [22]: -1.77 | interaction score [23]: -1.59 | interaction score [24]: -1.47 | interaction score [25]: -1.57 | interaction score [26]: -1.49 | interaction score [27]: -1.83 | interaction score [28]: -0.731 | interaction score [29]: -1.6 | interaction score [30]: -1.68 | interaction score [31]: -1.58 | interaction score [32]: -1.67 | interaction score [33]: -1.82 | interaction score [34]: -1.42 | interaction score [35]: -1.45 | interaction score [36]: -1.06 | interaction score [37]: -1.88 | interaction score [38]: -1.62

B3: O15-bS (peptide)
chain: DEISQLEQENSELEQKISELKWENSQLEQ
interaction score [39]: -1.05 | interaction score [40]: -0.877 | interaction score [41]: -0.0139 | interaction score [42]: -0.724 | interaction score [43]: -1.13 | interaction score [44]: -0.754 | interaction score [45]: 1.93 | interaction score [46]: -0.919 | interaction score [47]: -3.1 | interaction score [48]: -0.978
